Data on 30 sequences can be found in the nanobody polyreactivity screen of Harvey et al. (2022).

A short description of this series: yeast display, Sf9 membrane polyspecificity reagent, FACS + sequencing; frameworks hold sequencing errors. Summed up:
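A nanobody's polyreactivity label depends on the gate it was sorted from. Yeast display cells were stained with 10% biotinylated, detergent-solubilized Sf9 membrane reagent for 1 hour at 4 °C, enriched on streptavidin microbeads and sorted by FACS. The low and high (top ~1%) gates were set on anti-HA fluorescence for expression and streptavidin fluorescence for reagent binding.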
Take “QVQLVESGGGLVQAGGSLRLSCAASGRIFRYYAMGWYRQAPGKETELVAAINWSGGSTYYADSVKGRFTISRDNAKNTVYLQMNSLKPEDTAVYYCNRRAYIRYDSSSLDYWGQGTQVTVSS”: the “polyreactivity (PSR sort gate)” value was “low polyreactivity”.

For “QVQLVESGGGLVQAGGSLRLSCAASGRIFRYYAMGWYRQAPGQERELVAAISWRGGITNYADSVKGRFTISRDNAKNTVYLQMNSLKPEDTAVYYCNRVQGPDSQAKTSMYYWGQGTQVTVSS”, the “polyreactivity (PSR sort gate)” value is “high polyreactivity”.

Turning to “QVQLVESGGGLVQAGGSLRLSCAASGRIFRYYAMGWYRQPPGKERELVAAISSSGGRTYYADSVKGRFTISRDNAKNTVYLQMNSLKPEDTAVYYCAADAPNFGLYRDKDYDYWGQGTQVTVSS”, the “polyreactivity (PSR sort gate)” value is “high polyreactivity”.

With “QVQLVESGGGLVQAGGSLRLSCAASGRIFRYYTMGWYRQAPGKERELVAAITWSGGSTYYADSVKGRFTISRDNAKNTVYLQMNSLKPEDTAVYYCAVVYSPSMDYWGQGTQVTVSS”, the “polyreactivity (PSR sort gate)” value is “high polyreactivity”.

In the case of “QVQLVESGGGLVQAGGSLRLSCAASGRIFRYYVMGWYRQAPGKERELVAAITSGGSTYYADSVKGRFTISRDNAKNTVYLQMNSLKPEDTAVYYCAAETTLPIFYYTQVNYWGQGTQVTVSS”, the “polyreactivity (PSR sort gate)” value is listed as “low polyreactivity”.

With “QVQLVESGGGLVQAGGSLRLSCAASGRIFRYYVMGWYRQAPGKERELVAAITSGTSTNYADSVKGRFTISRDNAKNTVYLQMNSLKPEDTAVYYCAFRSPRGGRTRFNSNYWGQGTQVTVSS”, the “polyreactivity (PSR sort gate)” value is “high polyreactivity”.

In the case of “QVQLVESGGGLVQAGGSLRLSCAASGRIFSAYTMGWYRQAPGNERELVAAIRWSGDSTYYADSVKGRFTISRDNAKNTVYLQKNSLKPEDTAVYYCAARDRWFPRYSSRYYSWGQGTQVSVSS”, the “polyreactivity (PSR sort gate)” value is reported as “high polyreactivity”.

“QVQLVESGGGLVQAGGSLRLSCAASGRIFSDNAMGWYREAPGKERELVAAITWSSGSTYADSVKGRFTISRDNAKNTVYLQMNSLKPEDTAVYYCNVSPGYEPLDHELDYWGQGTQVTVSS”: the “polyreactivity (PSR sort gate)” value was “low polyreactivity”.

Regarding “QVQLVESGGGLVQAGGSLRLSCAASGRIFSDNAMGWYRQAPGKERELVAAITDRGGSTYYADSVKGRFTISRDNAQNTVYLQMNSLKPEDTAVYYCAARNTPAQLDYWGQGTQVTVSS”, the “polyreactivity (PSR sort gate)” value is “low polyreactivity”.

In the case of “QVQLVESGGGLVQAGGSLRLSCAASGRIFSFNAMGWYRQAPGKERELVAGITYGGNTYYADSVKGRFTISRDNAKNTVYLQMNSLKPEDPAVYYCAAVRGGRHDYWGQGTQVTVSS”, the “polyreactivity (PSR sort gate)” value is on record as “low polyreactivity”.

Take “QVQLVESGGGLVQAGGSLRLSCAASGRIFSFNTMGWYRQAPGKEREFVATIRYSGGSTYADSVKGRFTISRDNAKNTVYLQMNSLKPEDTAVYYCAAAWWSYKFNRDFDYWGQGTQVTVSS”: the “polyreactivity (PSR sort gate)” value is reported as “low polyreactivity”.

For “QVQLVESGGGLVQAGGSLRLSCAASGRIFSGNAMGWYRQAPRKERELVAAISRGGSTDYADSVKGRFTISRDNAKNTVYLQMNSLKPEDTAVYYCSARVNGKRRRYDYWGQGTQVTVSS”, the “polyreactivity (PSR sort gate)” value is “high polyreactivity”.

For the sequence “QVQLVESGGGLVQAGGSLRLSCAASGRIFSINALGWYRQAPGKEREFVATISDRGSTTSYADSVKGRFTISRDNAKNTVYLQMNSLKPEDTAVYYCAARSYYRYDYWGQGTQVTVSS”, the “polyreactivity (PSR sort gate)” value is on record as “high polyreactivity”.

In the case of “QVQLVESGGGLVQAGGSLRLSCAASGRIFSIYAMGWYRQAPGKERDMVAASSFRGTSTYADSVKGRFTISRDNAKNTVYLQMNWLKPEDTAVYYCAVTGFDVLWPSLGGELDYWGQGTQVTVSS”, the “polyreactivity (PSR sort gate)” value was “low polyreactivity”.

“QVQLVESGGGLVQAGGSLRLSCAASGRIFSIYAMGWYRQAPGKERELVAAISKRGGSTSYADSVKGRFTISRDNAKNTVYLQMNSLKPEDTAVYYCNARGWIPARGWDDYYWGQGTQVTVSS”: the “polyreactivity (PSR sort gate)” value was “high polyreactivity”.

On to “QVQLVESGGGLVQAGGSLRLSCAASGRIFSKYAMGLYRQAPEKERELVAAISGTGGSTYYADSVKGRFTISRDNSKNTVYLHMNSLKTEDTAVYYCAAEWYGRMYYWGQGTQVTVSS”, for which the “polyreactivity (PSR sort gate)” value is reported as “high polyreactivity”.

Take “QVQLVESGGGLVQAGGSLRLSCAASGRIFSLNAMGWYRQAPGKERELVAAISKRGGSTYYADSVKGRFTISRDNAKNTVYLQMNSLKPEDTAVYYCNKLGSLSGRYDYWGQGTQVTVSS”: the “polyreactivity (PSR sort gate)” value is on record as “high polyreactivity”.

“QVQLVESGGGLVQAGGSLRLSCAASGRIFSLYAMGWYRQAPGKEREFVAAISKSSGGTYYADSVKGRFTISRDNAKNTVYLQMNSLKPKDTAVYYCNARFVIGWVRKLDYWGQGTQVTVSS”: the “polyreactivity (PSR sort gate)” value was “high polyreactivity”.

In the case of “QVQLVESGGGLVQAGGSLRLSCAASGRIFSLYAMGWYRQAPGKERELVAAISKRGGSTYYADSVKGRFTISRDNAKNTVYLQMNSLKPEDTAVYYCATQLPFRKPWHDYWGQGTQVTVSS”, the “polyreactivity (PSR sort gate)” value was “high polyreactivity”.

“QVQLVESGGGLVQAGGSLRLSCAASGRIFSLYAMGWYRQAPGKERELVAAISSSGGRTYYADSVKGRFTISRDNAKNTVYLQMNSLKPEDTAVYYCADLVFSWWTFEYWGQGTQVTVSS”: the “polyreactivity (PSR sort gate)” value is “high polyreactivity”.

“QVQLVESGGGLVQAGGSLRLSCAASGRIFSNNAMGWYRQAPGKERELVAAISSSGSTYYADSVKGRFTISRDNAKNTVYLQMNSLKPEDTAVYYCAVVYGYPYLRGYVYGFNYWGQGTQVTVSS”: the “polyreactivity (PSR sort gate)” value was “low polyreactivity”.

Regarding “QVQLVESGGGLVQAGGSLRLSCAASGRIFSNNVMGWYIQAPGKERELVATISTDGRTNYADSVKGRFTISRDNAQNTVYLQMNSLKPEDTAVYFCAATGVTILLSSKSDYWGQGTQVTVSS”, the “polyreactivity (PSR sort gate)” value was “low polyreactivity”.

As to “QVQLVESGGGLVQAGGSLRLSCAASGRIFSPYAMGWYRQAPGKERELVAAITRNGGRTYYADSVKGRFTISRDNAKNTVYLQMNSLKPEDTAVYYCAAAKQSGNDYWGQGTQVTVSS”, the “polyreactivity (PSR sort gate)” value is given as “low polyreactivity”.

Consider “QVQLVESGGGLVQAGGSLRLSCAASGRIFSRNAMGWYRQAPGKERELVAAITYSGGSTYYADSVKGRFTISRDNAKNTVYLQMNSLKPEDTAVYYCNADLYLQLPESYEYDYWGQGTQVTVSS”, for which the “polyreactivity (PSR sort gate)” value is on record as “high polyreactivity”.

As for “QVQLVESGGGLVQAGGSLRLSCAASGRIFSRNAMGWYRQAPGKERELVAGISARGGRTYYADSVKGRFTISRDNAKNTVYLQMNSLKPEDTAVYYCNARTGYQDGTYGNDYWGQGTQVTVSS”, the “polyreactivity (PSR sort gate)” value is on record as “high polyreactivity”.

For “QVQLVESGGGLVQAGGSLRLSCAASGRIFSRNTMGWYRQAPGKEREFVAAISQSGGRTYYADSVKGRFTISRDNAKNTVYLQMNSLKPEDTAVYYCAAPSQSRGYYYWGQGTQVTVSS”, the “polyreactivity (PSR sort gate)” value is recorded as “high polyreactivity”.

As to “QVQLVESGGGLVQAGGSLRLSCAASGRIFSRYAMGWYRQAHGKERELVAAISWSGGSTYYADSVKGRFTISRDNAKNTVYLQMNSLKPEDTAVYYCAARRSYSYGSWGQGTQVTVSS”, the “polyreactivity (PSR sort gate)” value is “high polyreactivity”.

Take “QVQLVESGGGLVQAGGSLRLSCAASGRIFSRYAMGWYRQAPGKERELVAAINKSGGSTYYADSVKGRFTISRDNAKNTVYLQMNSLKPEDTAVYYCNAVYYWYKGDYWGQGSQVTVSS”: the “polyreactivity (PSR sort gate)” value is “high polyreactivity”.

With “QVQLVESGGGLVQAGGSLRLSCAASGRIFSRYAMGWYRQAPGKERELVAAISRNGGSTYYADSVKGRFTISRDNAKNTVYLQMNSLKPEDTAVYYCNARGNQAVNGYEYWGQGTQVTVSS”, the “polyreactivity (PSR sort gate)” value is recorded as “high polyreactivity”.

On to “QVQLVESGGGLVQAGGSLRLSCAASGRIFSRYAMGWYRQAPGKERELVAAISWSGGSTYYADSVKGRFTISRDKAKNTVYLQMNSLKPEDTAVYYCAAKRQYTEYNYWGQGTQVTVSS”, for which the “polyreactivity (PSR sort gate)” value is on record as “high polyreactivity”.
